{
  "source": "the DeepSol protein solubility set",
  "data": [
    {"test": "soluble on expression in E. coli; label from the status in PepcDB or PDB records", "values": [
      {"sequence": "MVNPFIKEAKEKMKRTLEKIEDELRKMRTGKPSPAILEEIKVDYYGVPTPVNQLATISISEERTLVIKPWDKSVLSLIEKAINASDLGLNPINDGNVIRLVFPSPTTEQREKWVKKAKEIVEEGKIAIRNIRREILKKIKEDQKEGLIPEDDAKRLENEIQKLTDEFIEKLDEVFEIKKEEIMEF", "soluble on expression in E. coli": "soluble"},
      {"sequence": "IGDVNLTLRGNFTYSKSEILEYDEEYSNYPYKSQRGFRVDQTRGLIALGLFKDYDDIRNSPKQSWGDVMPGDIKYADVNGDGYVNDNDIVPIGATTRPNLVYGFGLSGQWKGIDINVLFQGSGKSTFCIDGPTVYPFENGDWGNILTDVVKSNRWILGENEDPNAKYPRLSYGGNSNNYRASTYWLRNGSYLRLKNLEIGYTIPKSLVNKMHLNNIRIYFMGTNLVTFSSFKLWDPELGSSNGQKYPLSKSYTLGLTINI", "soluble on expression in E. coli": "not soluble"},
      {"sequence": "RLVDESALEEFLTREIGPAETFDVARHEQGHSNETLFVTWGDRELVVRRPPPGQTAETAHDVLREYRVIDALQDTAVPVPPTVTACDDQTIIGSDFYVMARVEGTVIRDDEPARFGSDDARAAVGTELVDTLAAIHEVDPTAVGLSDLGRADGYAKRQVARWGKQLAWAFERTAESRTIPELERVGSWLQDECPDDHPKTLVHGDYKLDNVMFGPGDDPELAAVFDWEMATLGDPRADLGWLLSYWRD", "soluble on expression in E. coli": "not soluble"},
      {"sequence": "WGYECIGMFRSYQEINEYFDKYSITKYLGNTKENVHPGMLIYKDVRGQYDESTGTFGPADGIVDEQDYIKISHRASNPYGGTLNFGFSYKDFSISAQFGASWGAYSLVPTTMRKESYSEYSNVSAMWKDMFVYEDIYDANNIVTVAQNRNAKYPNIRYSSVNGAPSTFWKVSAATVQLRNMTVAYALPKEWLKIIGISSCRFNLTCQNVFNFLNPYPEGAWASWAGSYGYYPNLRKFTLGVNVSF", "soluble on expression in E. coli": "not soluble"},
      {"sequence": "MAESSDKLYRVEYAKSGRASCKKCSESIPKDSLRMAIMVQSPMFDGKVPHWYHFSCFWKVGHSIRHPDVEVDGFSELRWDDQQKVKKTAEAGG", "soluble on expression in E. coli": "soluble"},
      {"sequence": "MGSDKIHHHHHHMYQVIANFSFQNFEHDPVILINQIINQWRYNGQIIGREFSVTYHTQPSAHFQVRLATPEQISLMPEWNNDQVTEALSQAAEKGVEFESFEIIGRDYQAEQTSENSNARFYILYTTHLDSCSPLYNGDDFCPVPLYRLLQKDQSLAQALIKWQENWQACDQLQMNGTILEQPALNEISEIDSNLAQLGIKLCREVERVTQVPTYYYLYRLGTDEAVEYQRKCSSCGAEWRLTEPLHQIFHFKCDKCRLISNLSWQLQK", "soluble on expression in E. coli": "not soluble"},
      {"sequence": "MGSDKIHHHHHHMFLRFFSELRQAKVPVSLREYLLLMEALDKDVIDRSVEDFYFLSRASLVKDEKNLDKFDRVFSHVFKGLETVNDGLAADIPEEWLKALTEKFLTDEEKAQIEALGGFEKLMETLQERLREQKKRHEGGNKMIGSGGTSPFGNNGYNPEGVRIGQDKGRHGRAVKVWDKREYKNLDDSVELGTRNIKVALRRLRKFARTGAAEELDLNGTIKGTAEKGYLDIQLRPERRNAIKVLLFFDIGGSMDSHIKLCEELFSAARTEFKNLEFYYFHNCLYETVWKDNKRRQTEKIPTFDVLHKFPADYKVIFVGDATMSPYEITYPGGSVEHWNEEPGAIWMQRVTEIYQSCIWLNPTPERHWDYTQSIGVMRQIMADRMFPLTIEGLDKAMRELVRG", "soluble on expression in E. coli": "not soluble"},
      {"sequence": "MKNNRYSPDWPQLALQKKQSVNWVCERCGVQCLKPGEGKGLSTGDRYRLRMAVHHCDYDPSNNYPSNLMALCSPCHLYYHRRQRGNVTPGQLTLKFCLEHHHHHH", "soluble on expression in E. coli": "not soluble"},
      {"sequence": "MMSTPPQNTRPVFSVDGLWKVFGPKAERVPADPELAALSAAELSERTGCTAAVRDVSFDVHKGEVFVVMGLSGSGKSTLVRCLTRLIEPTAGTIAIDGEDVRAMDRTRLRELRRHRASMVFQHFGLLPHRTVLDNVAYGLEIQGLGKAERRERAAEVVAKVGLEGMEQRKPGQLSGGQQQRVGLARALAVDPEVLLFDEPFSALDPLIRRDMQEEVVRLHREEGRTMVFITHDLNEALRLGDRIALMRDGRVVQLGTPEEIVGSPADDYVREFVRDVPREQVMTVRTAMRAASAEEAGSGPAVAPDATVSEAIEAVARAGSPARVVDSGRCVGVVDSEALLDVVAGVGASGPAPAVTAVPPFEPSRDFGNAGAGAAEAAPGDVTGEEVALEHHHHHH", "soluble on expression in E. coli": "soluble"},
      {"sequence": "MAISDGRTGNTRQAEALASTLVGSLYTTQVLKPRIPWRWTAPYCLPGAKHAFGTTFSHALRYPPFLAIGCGRQAALATRLLHKQGACVVQILDPRLPARHWDLLVVPEHDHIRGHNVLTLLGSLHPVNDVWLATGRAQFPELGDLPGQRVALLVGAPTPQAPWQPAQLEELCTALVKGLSCGGSVLATTSRRTPPELATQLRKHLATIPGLFWNNTDKGANPYPGILGWADAIIATADSVNLLSEACATRAPVTAAFANQTRGRIRCFIDALGARLCTVENLLAIDTLAQPLRETERIANEVRAWFGMV", "soluble on expression in E. coli": "not soluble"},
      {"sequence": "MFKEVGEPNFPKLEEEVLAFWKREKIFQKSVENRKGGPRYTVYEGPPTANGLPHVGHAQARSYKDLFPRYKTMRGYYAPRRAGWDTHGLPVELEVEKKLGLKSKREIEAYGIERFNQACRESVFTYEKEWEAFTERIAYWVDLENAYATLEPTYIESIWWSLKNLFDRGLLYRDHKVVPYCPRCGTPLSSHEVALGYKEIQDPSVYVRFPLKEPKKLGLEKASLLIWTTTPWTLPGNVAAAVHPEYTYAAFQVGDEALILEEGLGRKLLGEGTPVLKTFPGKALEGLPYTPPYPQALEKGYFVVLADYVSQEDGTGIVHQAPAFGAEDLETARVYGLPLLKTVDEEGKLLVEPFKGLYFREANRAILRDLRGRGLLFKEESYLHSYPHCWRCSTPLMYYATESWFIKNTLFKDELIRKNQEIHWVPPHIKEGRYGEWLKNLVDWALSRNRYWGTPLPIWVCQACGKEEAIGSFQELKARATKPLPEPFDPHRPYVDQVELACACGGTMRRVPYVIDVWYDSGAMPFASLHYPFEHEEVFRESFPADFIAEGIDQTRGWFNFLHQLGVMLFGSIAFKNVICHGLILYEMGQKMSKSKGNVVDPWDIIREFGADALRWYIYVSAPPEADRRFGPNLVRETVRDYFLTLWNVYSFFVTYANLDRPDLKNPPPPEKRPEMDRWLLARMQDLIQRVTEALEAYDPTTSARALRDFVVEDLSQWYVRRNRRRFWKNEDALDREAAYATLYEALVLVATLAAPFTPFLAEVLWQNLVRSVRPEAKESVHLADWPEADPALADEALVAQMRAVLKVVDLARAARAKSGVKTRTPLPLLLVTAPTALEREGLKRFAHEIAEELNVKEVRVLEPGEEILSYRVLPNLKLLGRKYGKLVPKIREALQRERERAAALALKGEAIPLEVEGEALTLLPEEVLLEAEAPKGYQALEKDGYVAALKVEVTEALRMEGLARDLIRLLQQARKDMGLKVSDRIRVGYEAEGPYLEALKRHGPWIAEEVLATAFGEGLFGGFEARVEDEEGKAVFHLARAE", "soluble on expression in E. coli": "soluble"},
      {"sequence": "MAHHHHHHMRCGGRWIVERSDGFVIEVEKPGVSVVFGRDIGLPSAQRMDGKYVSRQQFSVEWKASSLHVRQLGKNPTFYSMEFHTLPGDGTAEKELVCCREEETREGKQMGDGGKGLNVILVPPVSNENFLASLRGGAKGIEPATLHFPGELNLPRFTVRYVVADEKSSEEKISREMLTVPLGSSKSDEVEEDERANQPWMTGSWRGILDSVLHEQQQQQQQAER", "soluble on expression in E. coli": "not soluble"},
      {"sequence": "SEIESDPNDGHHHHHRRLHLDLSVDERSPRHGISELLQKLRPEWKPDDIQIKVFTEGITNQLMGCYVGSMTRDPVLLVRVYGQMTELFMDREKEMEMFRVLHKHGCGPQLYCSFNNGICYEFVRGVVLDDTLLHQPSVYRLIATEMGKIHSIKSGDSGARSAVTPVLWSRLSQFLNLLQSADDPEQQRSSADGETPSLEIIMREMEELKSHLARINSPVVLCHNDLLTKNVIYNQEEGAVKFIDYEYADFNYQAYDIGNHFNEFAGIDNVDSSLYPSDELQFDWLSAYLESFKRCSTGDSAVTQTEVQELYEQVCQFSLVAHLFWCLWALLQAKHSTIDFDFQRYARARFNYYFEKKREFCGLTPP", "soluble on expression in E. coli": "soluble"},
      {"sequence": "MGSDKIHHHHHHMKVLIITNLFPLNNNSNSGIFVVQRLRHYKSFNVNLDTISLGHHNSKIASLLEKLLRGHSNKKTLEEVENVKFYPVSIEINLLRLIKYGLLRNYFTVLCKEYKKMIEEAFNLNEYDLIHAHGMYSVPAGLTAKILAEKYRKPFIVTLHGSDVNLFMPHRKEIYVSILESASATIFVSKALLEKAKSLGFSGKNAVVIPNGYDETIFKPMDKEAVRKELGIHREGYKYVGFVGNLIPIKRADKLGEIFHLIAKEIPETFFIIVGDGPLRKKIEKETKGLNIIFTGRLPQKDVAKYMNAMDVMVLPSRNEGWPCVILEAQACGTCVIGSSNRGIPEAIGFPEYVVEEGDQFEERFARRVVEVLNEGYDVNRILERAKGFTWRNIVEKEIDVHKRVVLKS", "soluble on expression in E. coli": "not soluble"},
      {"sequence": "MCFHNSMSAKAIKVAARYGRQSDVVEIYQSILDEQYHVNAFTFPRYPIITSSDEVQVFNWGLIPFWVRSEEDATEIRKMTLNARADTIFEKPSFREPIMKKRCIVPSTGYFEWRHEGANKIPYYIYVKDEPIFSMAGIYDRWLDKDTGEEHETFSIITTDTNSLTDYIDNTKHRMPAILTQEEEEKWLNPSLSKAEIASLLKPFDTEKMDAYVIRNDFLKKSPNDPTIVQRALEHHHHHH", "soluble on expression in E. coli": "soluble"},
      {"sequence": "MGSSQSTPKVQDANADAERIRKAQHSMAAAGGGSQCPLTPEQRAAASGENCGAGGACPVGADKASINPLNNELEHPNQKPAPDQPFALPTKREKSTIPKAGTETETWTYPSPQMFWNAMLKKGWRWQDDSLSKSDMENIISIHNANNEEAWREVLKWENLLHPECAEPKLKSFKGDAKNLSPRARFRNLFLGYDLPFDRHDWIVDRCGTKQVQYVIDYYDGGAVDPSSKLFTILDVRPAVNDIGNIWDRMVVAYWRFKFETLGFTPSLPIPPTEGHNVNH", "soluble on expression in E. coli": "not soluble"},
      {"sequence": "MDLSSKPQQQLLNSLPIAGELTVTGEMGVCYKECLKNHAANLGGHALDGCGEFMPSPTATSTDPSSLRCAACGCHRNFHRRDPSENLNFLTAPPISSPSGTESPPSRHVSSPVPCSYYTSAPPHHVILSLSSGFPGPSDQDPTVVRSENSSRGAMRKRTRTKFTPEQKIKMRAFAEKAGWKINGCDEKSVREFCNEVGIERGVLKVWMHNNKYSLLNGKIREIEHGLCLNTHSNDGDGSSSS", "soluble on expression in E. coli": "soluble"},
      {"sequence": "MLSDITIHNLGVIPSASLELSEGLTVLTGETGAGKTMVVTGLRLLAGGRAEAQRVRSGSSQAVVEGRFLLDSVAPESAEMARAVVSAAGGALDENGEVIVSRTVSAHGRSRAHLGGRSVPAASLVEFSKEVLTIHGQNDQLRLLNSDRQRDALDRFSQKISALMTVYSEAYRAWKNLSKDLQERQASKRELAQEVDRLEFAIREISEVDPQPGEEADLLVQIARLQDVDDLRAQAVGALSVIDGAAGVEGYATCDSSDADAASDLIGQALSSVRVSSDPTLQGVSQQLEAVTSILMEVSAQLGGFLDELPADPQMLDKLLQRQQALKQLTRKYASDIDGVIKWKLKAEQKLESIDVSPEALDQLKKETALAERKMNDAGMALRAARIEAAQELSNAVTKELHGLAMPKAMFSVVVHPTEPQPSGFDEVEFCLAPNNATDPRPLASSASGGELSRVMLALEVILSAGQHGNTLVFDEVDAGVGGRAAVEIGRRLARLAQNNQVIVVTHLPQVAAYADTHLHVAKDVGESTVTSGVEKLSEQRRVEDLARMLAGLEDTDTGRAHAKELFEKAQAENRAFRV", "soluble on expression in E. coli": "not soluble"},
      {"sequence": "MGSDKIHHHHHHMSTVSAQEAVSLREAAERRSQFARVPARSVSAPPRKKWFRSKQQLSGAADGMDGSSRAGSQEIVCDEFTKKLVAAITTWHDIHSSLLQLSIERSSNDSNEEHENVSVSSESSWSSASDSESDEDSATGRDSTNNHLSASAARFSISNPDLTNCQIKQMFPEMADHWR", "soluble on expression in E. coli": "not soluble"}
    ]}
  ]
}
